Experimental data from US12383631B2, “Immune antigen specific IL-18 immunocytokines and uses thereof” (Bright Peak Therapeutics AG, priority 2022, dated 2025).
Changes are numbered by the printed parent chain. Names may count otherwise.

B1: C177: IL-18 polypeptide: E6K, V11I, C38A, I49R, K53A, T63A, C76A, C127A (protein)
chain: YFGKLKSKLSIIRNLNDQVLFIDQGNRPLFEDMTDSDARDNAPRTIFIRSMYADSQPRGMAVAISVKCEKISTLSAENKIISFKEMNPPDNIKDTKSDIIFFQRSVPGHDNKMQFESSSYEGYFLAAEKERDLFKLILKKEDELGDRSIMFTVQNED
B2: C178: IL-18 polypeptide: E6K, V11I, C38A, K53A, T63A, C76A, Q103R, C127A (protein)
chain: B1 chain with R49I, Q103R
B3: C162: IL-18 polypeptide: K8E, V11I, C38A, C76A, Q103R, C127A (protein)
chain: B1 chain with K6E, K8E, R49I, A53K, A63T, Q103R
B4: C144: IL-18 polypeptide: V11I, C38A, K53A, T63A, C76A, C127A (protein)
chain: B1 chain with K6E, R49I
B5: C149: IL-18 polypeptide: V11I, E31A, C38A, K53A, C76A, C127A (protein)
chain: B1 chain with K6E, E31A, R49I, A63T
B6: C167: IL-18 polypeptide: V11I, C38A, C76A, S105I, C127A (protein)
chain: B1 chain with K6E, R49I, A53K, A63T, S105I
B7: C154: IL-18 polypeptide: V11I, E31A, D37A, C38A, K53A, C76A, C127A (protein)
chain: B1 chain with K6E, E31A, D37A, R49I, A63T
B8: C156: IL-18 polypeptide: V11I, C38A, N41A, K53A, C76A, C127A (protein)
chain: B1 chain with K6E, N41A, R49I, A63T
B9: C153: IL-18 polypeptide: V11I, D37A, C38A, K53A, C76A, C127A (protein)
chain: B1 chain with K6E, D37A, R49I, A63T
B10: C163: IL-18 polypeptide: V11I, C38A, C76A, Q103K, C127A (protein)
chain: B1 chain with K6E, R49I, A53K, A63T, Q103K
B11: SEQ ID NO: 68: IL-18 polypeptide: V11I, C38A, M51G, K53A, C76A, C127A (protein)
chain: B1 chain with K6E, R49I, M51G, A63T
B12: C158: IL-18 polypeptide: V11I, C38A, K53A, C76A, G108A, C127A (protein)
chain: B1 chain with K6E, R49I, A63T, G108A
B13: C166: IL-18 polypeptide: V11I, C38A, S55T, C76A, C127A (protein)
chain: B1 chain with K6E, R49I, A53K, S55T, A63T
B14: C150: IL-18 polypeptide: V11I, T34A, C38A, K53A, C76A, C127A (protein)
chain: B1 chain with K6E, T34A, R49I, A63T
B15: C159: IL-18 polypeptide: V11I, C38A, K53A, C76A, H109A, C127A (protein)
chain: B1 chain with K6E, R49I, A63T, H109A
B16: C168: IL-18 polypeptide: V11I, C38A, C76A, S105K, C127A (protein)
chain: B1 chain with K6E, R49I, A53K, A63T, S105K
B17: C148: IL-18 polypeptide: F2A, V11I, C38A, K53A, C76A, C127A (protein)
chain: B1 chain with F2A, K6E, R49I, A63T
B18: C143: IL-18 polypeptide: V11I, C38A, K53A, C76A, C127A (protein)
chain: B1 chain with K6E, R49I, A63T
B19: C161: IL-18 polypeptide: K8R, V11I, C38A, C76A, Q103E, C127A (protein)
chain: B1 chain with K6E, K8R, R49I, A53K, A63T, Q103E
B20: C147: IL-18 polypeptide: V11I, C38A, K53A, D54A, C76A, C127A (protein)
chain: B1 chain with K6E, R49I, D54A, A63T
B21: C164: IL-18 polypeptide: V11I, C38A, S55H, C76A, C127A (protein)
chain: B1 chain with K6E, R49I, A53K, S55H, A63T
B22: C160: IL-18 polypeptide: V11I, C38A, K53A, C76A, D110A, C127A (protein)
chain: B1 chain with K6E, R49I, A63T, D110A
B23: C145: IL-18 polypeptide: V11I, C38A, K53A, S55A, C76A, C127A (protein)
chain: B1 chain with K6E, R49I, S55A, A63T
B24: C151: IL-18 polypeptide: V11I, D35A, C38A, K53A, C76A, C127A (protein)
chain: B1 chain with K6E, D35A, R49I, A63T
B25: C155: IL-18 polypeptide: V11I, C38A, D40A, K53A, C76A, C127A (protein)
chain: B1 chain with K6E, D40A, R49I, A63T
B26: C165: IL-18 polypeptide: V11I, C38A, S55R, C76A, C127A (protein)
chain: B1 chain with K6E, R49I, A53K, S55R, A63T
B27: C157: IL-18 polypeptide: V11I, C38A, K53A, C76A, C127A, D132A (protein)
chain: B1 chain with K6E, R49I, A63T, D132A
B28: C152: IL-18 polypeptide: V11I, S36A, C38A, K53A, C76A, C127A (protein)
chain: B1 chain with K6E, S36A, R49I, A63T

These molecules were tested against T1, human IL-18BP (Homo sapiens, UniProt O95998) (assay: IL-18BP binding AlphaLISA assay (Example 4 / 17B)). Conditions: IL-18 binding protein AlphaLISA.
T1 sequence (O95998 31-194): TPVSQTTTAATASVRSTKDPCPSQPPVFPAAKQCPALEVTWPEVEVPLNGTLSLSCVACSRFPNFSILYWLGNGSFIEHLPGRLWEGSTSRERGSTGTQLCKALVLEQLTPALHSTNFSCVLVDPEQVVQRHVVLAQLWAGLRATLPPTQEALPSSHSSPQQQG
Protocol: A human IL-18BP AlphaLISA Assay Kit is used to determine the binding affinity of each immunocytokine and IL-18 variant for IL-18BP, which detected the presence of free form IL-18BP.
Sixteen three-fold serial dilutions of IL-18 analytes are prepared in aMEM medium supplemented with 20% FCS, Glutamax, and 25 μM β-mercaptoethanol in the presence of 5 ng/mL of His-tagged human IL-18BP. Final IL-18 analytes concentration range from 2778 nM to 0.2 pM.
After 1 hr incubation at room temperature, free IL-18BP levels are measured using a […]. In a 384 well OPTIplate, 5 μL of 5× Anti-IL-18BP acceptor beads are added to 7.5 μL of an IL-18/IL-18BP mix. After 30 min incubation at room temperature with shaking, 5 μL of biotinylated Anti-IL-18BP antibodies are added to each well. The plate is incubated further for 1 hr at room temperature. Under subdued light, 12.5 μL of 2× streptavidin (SA) donor beads are pipetted into each well, and the wells are incubated with shaking for an additional 30 min at room temperature. The AlphaLisa signal is then measured on an Enspire plate reader with 680 and 615 nm as excitation and emission wavelengths, respectively. The dissociation constant (KD) is calculated based on a variable slope, four parameter analysis using GraphPad PRISM software.
17B—IL-18 BP AlphaLISA assay—An IL-18 binding protein AlphaLISA experiment substantially as described in Example 4 was performed on IL-18 polypeptide which can be incorporated into immunocytokine compositions as provided herein to assess ability to bind to IL-18BP.

Row | Molecule | Kd
1 | B1 | > 2800 nM
2 | B2 | > 2800 nM

These molecules were tested against T2, human IL-18 binding protein isoform a (IL-18BPa) (Homo sapiens, UniProt O95998) (assay: IL-18 Binding Protein inhibition cellular assay in NK-92 cells (Example 4 / 17C)). Conditions: inhibition by IL-18BP of IFNγ stimulation in NK92 cells.
T2 sequence (O95998 31-194): T1 sequence (O95998 31-194)
Assay type: cell-based
Protocol: The NK cell line NK-92 derived from a patient with lymphoma (ATCC® CRL-2407™) is cultured in aMEM medium supplemented with 20% FCS-Glutamax, 25 μM β-mercaptoethanol, and 100 IU/mL of recombinant human IL-2.
On the day of experiment, cells are harvested and washed with aMEM medium without IL-2 and containing 1 ng/mL of recombinant human IL-12. After counting, the cells are seeded at 100,000 cells/well in a 384 well titer plate and incubated at 37° C./5% CO2. Sixteen 2-fold serial dilutions of Fc-fused human IL-18 binding protein isoform a (IL-18BPa) are prepared in aMEM medium. 1 ng/mL of IL-12 containing 2 nM of each modified IL-18 polypeptide variant is added to the NK-92 cells. The final IL-18 analyte concentration is 1 nM, and the final IL-18BPa concentration ranged from 566 nM to 17 pM.
After incubating the cells for 16-20 hr at 37° C./5% CO2, 5 μL of the supernatant is carefully transferred to a 384 microwell OptiPlate. IFNγ levels are measured using a human IFNγ AlphaLISA Assay Kit. Briefly, 10 μL of 2.5× AlphaLISA anti-IFNγ acceptor beads and biotinylated antibody anti-IFNγ mix are added to 5 μL of NK-92 supernatants. The mixtures are incubated for 1 hr at room temperature with shaking. Under subdued light, 2.5 μL of 2×SA donor beads are pipetted in each well and incubated for 30 min at room temperature with shaking. AlphaLISA signals are then measured on an EnSpire™ plate reader using 680 nm and 615 nm as excitation and emission wavelengths, respectively. Half maximal inhibitory concentrations (IC50) are calculated based on a variable slope and four parameter analysis using GraphPad PRISM software.
17C—IFNγ Stimulation and IL-18BP Inhibition Assay—The experiments described in Example 4 for determination of IFNg stimulation in NK92 cells (and inhibition by IL-18 BP) were performed substantially as described on modified IL-18 polypeptides in order to assess their activities and their suitability for incorporation into immunocytokine compositions.

Row | Molecule | IC50
3 | B3 | 7.29 nM
4 | B4 | 7.52 nM
5 | B5 | 1.17 nM
6 | B6 | 0.809 nM
7 | B7 | 3.71 nM
8 | B8 | 0.681 nM
9 | B9 | 2.22 nM
10 | B10 | 0.823 nM
11 | B11 | 733 nM
12 | B12 | 3.98 nM
13 | B13 | 0.44 nM
14 | B14 | 21.3 nM
15 | B15 | 1.81 nM
16 | B16 | 0.176 nM
17 | B17 | 5.05 nM
18 | B18 | 1.62 nM
19 | B19 | 1.07 nM
20 | B20 | 47.6 nM
21 | B21 | 0.456 nM
22 | B22 | 3.18 nM
23 | B23 | 10.2 nM
24 | B24 | 3.62 nM
25 | B25 | 3.23 nM
26 | B26 | 0.885 nM
27 | B27 | 6.08 nM
28 | B28 | 7.85 nM
